B1: Kinesin-like protein KIF1C (Homo sapiens), O43896 (parent)
chain: MAGASVKVAVRVRPFNARETSQDAKCVVSMQGNTTSIINPKQSKDAPKSFTFDYSYWSHTSTEDPQFASQQQVYRDIGEEMLLHAFEGYNVCIFAYGQTGAGKSYTMMGRQEPGQQGIVPQLCEDLFSRVSENQSAQLSYSVEVSYMEIYCERVRDLLNPKSRGSLRVREHPILGPYVQDLSKLAVTSYADIADLMDCGNKARTVAATNMNETSSRSHAVFTIVFTQRCHDQLTGLDSEKVSKISLVDLAGSERADSSGARGMRLKEGANINKSLTTLGKVISALADMQSKKRKSDFIPYRDSVLTWLLKENLGGNSRTAMIAALSPADINYEETLSTLRYADRTKQIRCNAIINEDPNARLIRELQEEVARLRELLMAQGLSASALEGLKTEEGSVRGALPAVSSPPAPVSPSSPTTHNGELEPSFSPNTESQIGPEEAMERLQETEKIIAELNETWEEKLRKTEALRMEREALLAEMGVAVREDGGTVGVFSPKKTPHLVNLNEDPLMSECLLYHIKDGVTRVGQVDMDIKLTGQFIREQHCLFRSIPQPDGEVVVTLEPCEGAETYVNGKLVTEPLVLKSGNRIVMGKNHVFRFNHPEQARLERERGVPPPPGPPSEPVDWNFAQKELLEQQGIDIKLEMEKRLQDLENQYRKEKEEADLLLEQQRLYADSDSGDDSDKRSCEESWRLISSLREQLPPTTVQTIVKRCGLPSSGKRRAPRRVYQIPQRRRLQGKDPRWATMADLKMQAVKEICYEVALADFRHGRAEIEALAALKMRELCRTYGKPDGPGDAWRAVARDVWDTVGEEEGGGAGSGGGSEEGARGAEVEDLRAHIDKLTGILQEVKLQNSSKDRELQALRDRMLRMERVIPLAQDHEDENEEGGEVPWAPPEGSEAAEEAAPSDRMPSARPPSPPLSSWERVSRLMEEDPAFRRGRLRWLKQEQLRLQGLQGSGGRGGGLRRPPARFVPPHDCKLRFPFKSNPQHRESWPGMGSGEAPTPLQPPEEVTPHPATPARRPPSPRRSHHPRRNSLDGGGRSRGAGSAQPEPQHFQPKKHNSYPQPPQPYPAQRPPGPRYPPYTTPPRMRRQRSAPDLKESGAAV
partner: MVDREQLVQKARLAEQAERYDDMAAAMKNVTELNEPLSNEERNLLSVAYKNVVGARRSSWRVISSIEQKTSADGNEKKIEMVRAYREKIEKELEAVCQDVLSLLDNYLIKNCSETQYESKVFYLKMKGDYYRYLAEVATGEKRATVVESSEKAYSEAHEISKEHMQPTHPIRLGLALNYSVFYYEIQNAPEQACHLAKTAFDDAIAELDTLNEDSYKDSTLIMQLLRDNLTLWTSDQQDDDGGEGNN
B2: Protein Smaug homolog 1 (Homo sapiens), Q9UPU9 (parent)
chain: MMFRDQVGVLAGWFKGWNECEQTVALLSLLKRVSQTQARFLQLCLEHSLADCAELHVLEREANSPGIINQWQQESKDKVISLLLTHLPLLKPGNLDAKVEYMKLLPKILAHSIEHNQHIEESRQLLSYALIHPATSLEDRSALAMWLNHLEDRTSTSFGGQNRGRSDSVDYGQTHYYHQRQNSDDKLNGWQNSRDSGICINASNWQDKSMGCENGHVPLYSSSSVPTTINTIGTSTSTILSGQAHHSPLKRSVSLTPPMNVPNQPLGHGWMSHEDLRARGPQCLPSDHAPLSPQSSVASSGSGGSEHLEDQTTARNTFQEEGSGMKDVPAWLKSLRLHKYAALFSQMTYEEMMALTECQLEAQNVTKGARHKIVISIQKLKERQNLLKSLERDIIEGGSLRIPLQELHQMILTPIKAYSSPSTTPEARRREPQAPRQPSLMGPESQSPDCKDGAAATGATATPSAGASGGLQPHQLSSCDGELAVAPLPEGDLPGQFTRVMGKVCTQLLVSRPDEENISSYLQLIDKCLIHEAFTETQKKRLLSWKQQVQKLFRSFPRKTLLDISGYRQQRNRGFGQSNSLPTAGSVGGGMGRRNPRQYQIPSRNVPSARLGLLGTSGFVSSNQRNTTATPTIMKQGRQNLWFANPGGSNSMPSRTHSSVQRTRSLPVHTSPQNMLMFQQPEFQLPVTEPDINNRLESLCLSMTEHALGDGVDRTSTI
partner: B1 partner
B3: Serine/threonine-protein kinase PAK 5 (Homo sapiens), Q9P286 (parent)
chain: MFGKKKKKIEISGPSNFEHRVHTGFDPQEQKFTGLPQQWHSLLADTANRPKPMVDPSCITPIQLAPMKTIVRGNKPCKETSINGLLEDFDNISVTRSNSLRKESPPTPDQGASSHGPGHAEENGFITFSQYSSESDTTADYTTEKYREKSLYGDDLDPYYRGSHAAKQNGHVMKMKHGEAYYSEVKPLKSDFARFSADYHSHLDSLSKPSEYSDLKWEYQRASSSSPLDYSFQFTPSRTAGTSGCSKESLAYSESEWGPSLDDYDRRPKSSYLNQTSPQPTMRQRSRSGSGLQEPMMPFGASAFKTHPQGHSYNSYTYPRLSEPTMCIPKVDYDRAQMVLSPPLSGSDTYPRGPAKLPQSQSKSGYSSSSHQYPSGYHKATLYHHPSLQSSSQYISTASYLSSLSLSSSTYPPPSWGSSSDQQPSRVSHEQFRAALQLVVSPGDPREYLANFIKIGEGSTGIVCIATEKHTGKQVAVKKMDLRKQQRRELLFNEVVIMRDYHHDNVVDMYSSYLVGDELWVVMEFLEGGALTDIVTHTRMNEEQIATVCLSVLRALSYLHNQGVIHRDIKSDSILLTSDGRIKLSDFGFCAQVSKEVPKRKSLVGTPYWMAPEVISRLPYGTEVDIWSLGIMVIEMIDGEPPYFNEPPLQAMRRIRDSLPPRVKDLHKVSSVLRGFLDLMLVREPSQRATAQELLGHPFLKLAGPPSCIVPLMRQYRHH
partner: B1 partner
B4: Glutamate receptor-interacting protein 1 (Homo sapiens), Q9Y3R0-3 (parent)
chain: MIAVSFKCRCQILRRLTKDESPYTKSASQTKPPDGALAVRRQSIPEEFKGSTVVELMKKEGTTLGLTVSGGIDKDGKPRVSNLRQGGIAARSDQLDVGDYIKAVNGINLAKFRHDEIISLLKNVGERVVLEVEYELPPVSVQGSSVIFRTVEVTLHKEGNTFGFVIRGGAHDDRNKSRPVVITCVRPGGPADREGTIKPGDRLLSVDGIRLLGTTHAEAMSILKQCGQEAALLIEYDVSVMDSVATASGPLLVEVAKTPGASLGVALTTSMCCNKQVIVIDKIKSASIADRCGALHVGDHILSIDGTSMEYCTLAEATQFLANTTDQVKLEILPHHQTRLALKGPDHAALVSSSFSPTSMSAYSLSSLNMGTLPRSLYSTSPRGTMMRRRLKKKDFKSSLSLASSTVGLAGQVVHTETTEVVLTADPVTGFGIQLQGSVFATETLSSPPLISYIEADSPAERCGVLQIGDRVMAINGIPTEDSTFEEASQLLRDSSITSKVTLEIEFDVAESVIPSSGTFHVKLPKKHNVELGITISSPSSRKPGDPLVISDIKKGSVAHRTGTLELGDKLLAIDNIRLDNCSMEDAVQILQQCEDLVKLKIRKDEDNSDEQESSGAIIYTVELKRYGGPLGITISGTEEPFDPIIISSLTKGGLAERTGAIHIGDRILAINSSSLKGKPLSEAIHLLQMAGETVTLKIKKQTDAQSASSPKKFPISSHLSDLGDVEEDSSPAQKPGKLSDMYPSTVPSVDSAVDSWDGSAIDTSYGTQGTSFQASGYNFNTYDWRSPKQRGSLSPVTKPRSQTYPDVGLSYEDWDRSTASGFAGAADSAETEQEENFWSQALEDLETCGQSGILRELEEKADRRVSLRNMTLLATIMSGSTMSLNHEAPTPRSQLGRQASFQERSSSRPHYSQTTRSNTLPSDVGRKSVTLRKMKQEIKEIMSPTPVELHKVTLYKDSDMEDFGFSVADGLLEKGVYVKNIRPAGPGDLGGLKPYDRLLQVNHVRTRDFDCCLVVPLIAESGNKLDLVISRNPLASQKSIDQQSLPGDWSEQNSAFFQQPSHGGNLETREPTNTL
partner: B1 partner
B5: Serine/arginine-rich splicing factor 10 (Homo sapiens), O75494 (parent)
chain: MSRYLRPPNTSLFVRNVADDTRSEDLRREFGRYGPIVDVYVPLDFYTRRPRGFAYVQFEDVRDAEDALHNLDRKWICGRQIEIQFAQGDRKTPNQMKAKEGRNVYSSSRYDDYDRYRRSRSRSYERRRSRSRSFDYNYRRSYSPRNSRPTGRPRRSRSHSDNDRFKHRNRSFSRSKSNSRSRSKSQPKKEMKAKSRSRSASHTKTRGTSKTDSKTHYKSGSRYEKESRKKEPPRSKSQSRSQSRSRSKSRSRSWTSPKSSGH
partner: B1 partner
B6: Kinesin light chain 3 (Homo sapiens), Q6P597 (parent)
chain: MSVQVAAPGSAGLGPERLSPEELVRQTRQVVQGLEALRAEHHGLAGHLAEALAGQGPAAGLEMLEEKQQVVSHSLEAIELGLGEAQVLLALSAHVGALEAEKQRLRSQARRLAQENVWLREELEETQRRLRASEESVAQLEEEKRHLEFLGQLRQYDPPAESQQSESPPRRDSLASLFPSEEEERKGPEAAGAAAAQQGGYEIPARLRTLHNLVIQYAGQGRYEVAVPLCRQALEDLERSSGHCHPDVATMLNILALVYRDQNKYKEATDLLHDALQIREQTLGPEHPAVAATLNNLAVLYGKRGRYREAEPLCQRALEIREKVLGADHPDVAKQLNNLALLCQNQGKFEDVERHYARALSIYEALGGPHDPNVAKTKNNLASAYLKQNKYQQAEELYKEILHKEDLPAPLGAPNTGTAGDAEQALRRSSSLSKIRESIRRGSEKLVSRLRGEAAAGAAGMKRAMSLNTLNVDAPRAPGTQFPSWHLDKAPRTLSASTQDLSPH
partner: B1 partner

Variants of: B1
Settings: with 1433g_human YWHAG

Variant | effect of a mutation on the interaction
S915A;S1033A;S1092A | disrupting interaction strength

Variants of: B2
Settings: with 1433g_human YWHAG

Variant | effect of a mutation on the interaction
S168A;S183A;S254A;S580A;S665A;T717A | decreasing interaction strength

Variants of: B3
Settings: with 1433g_human YWHAG

Variant | effect of a mutation on the interaction
S99A;S270A;S290A;T317A;T349A | decreasing interaction strength

Variants of: B4
Settings: with 1433g_human YWHAG

Variant | effect of a mutation on the interaction
T17A;S43A;S901A;T920A | disrupting interaction strength

Variants of: B5
Settings: with 1433g_human YWHAG

Variant | effect of a mutation on the interaction
S121A;S123A;S131A;S133A;S143A;S158A;S160A;S199A;S201A;S249A;S253A;T255A | disrupting interaction strength

Variants of: B6
Settings: with 1433g_human YWHAG

Variant | effect of a mutation on the interaction
S431A;S466A;S497A | disrupting interaction strength
